Legend:
recombinant mouse CA9 = biological target: T1, recombinant mouse CA9 (mouse, UniProt Q8VHB5 32-390, limits assumed); test: BLI (Octet R8), antibody on anti-mouse capture biosensors, recombinant antigen as analyte
T1 construct: also called mouse homolog of CA9
Protocol: (§1) The binding affinity of recombinant CA9 antibodies to human CA9 target antigen and cross-reactivity to mouse homologs was measured on the Octet R8. Briefly, recombinant antibody was loaded onto anti-mouse capture (AMC) Octet biosensors. Biosensors were then dipped into different concentrations of recombinant target antigen (analyte) solution, and the rate of protein-protein complex formation (association) measured. Protein-protein dissociation rates were measured when the biosensors were dipped into kinetic buffer alone. The Octet Analysis Studio 13.0 software calculated the response in equilibrium (Req) using the association and dissociation signal. The KD value and other kinetics parameters were determined by the values of Req for each analyte concentration (Table 1).
as §1, with “recombinant” for “recombinant CA9”, “PSMA” for “CA9”, “R8 instrument. […]” for “R8. Briefly, recombinant antibody was loaded onto anti-mouse capture (AMC) Octet biosensors.”, “The KD value and other kinetics parameters were determined by the values of Req for each analyte concentration (Table 1).” left out

[1] = biological target: T2, human Carbonic Anhydrase IX (CA9) expressed on cells (human, UniProt Q16790 38-459); test: flow cytometry, 8-point serial dilution on HEK293T-CA9 cells, anti-mouse IgG2a-PE secondary, gMFI
Protocol: (§2) Binding of recombinant CA9 1-mIgG2a and CA9 2-mIgG2a to CA9 was assessed by cell binding dose curves on parental HEK293T cells and HEK293T-CA9 expressing cell lines. Briefly, HEK293T parental and HEK293T-CA9 engineered cells were first blocked with human Fc blocker for 10 min at room temperature, stained for 30 min on ice with recombinant antibodies in an 8-point serial dilution, and washed 3 times with BD Stain Buffer. Subsequently, cells were stained for 30 min on ice with anti-mouse IgG2a-PE secondary antibody. Cell surface binding was measured on an Attune flow cytometer, with geometric mean fluorescence intensity (gMFI) data analyzed in FlowJo and plotted using GraphPad Prism. The dose-response curves and EC50 value were analyzed and obtained using the nonlinear fit model of (agonist) versus response (three parameters).
(§3) There was no binding to parental HEK293T cells.

recombinant human CA9 = recombinant human CA9 (human, UniProt Q16790 38-414); test: BLI (Octet R8), antibody on anti-mouse capture biosensors, recombinant human CA9 as analyte
Protocol: as §1

[2] = biological target: T3, mouse CA9 expressed on HEK293T cells (mouse, UniProt Q8VHB5 32-437); test: flow cytometry histograms on HEK293T-mCA9 cells (panel B, left), axis CA9 1 ab MFI
T3 construct: whole, on cells; also called HEK293T-mCA9; mCA9
T3 sequence (Q8VHB5 32-437): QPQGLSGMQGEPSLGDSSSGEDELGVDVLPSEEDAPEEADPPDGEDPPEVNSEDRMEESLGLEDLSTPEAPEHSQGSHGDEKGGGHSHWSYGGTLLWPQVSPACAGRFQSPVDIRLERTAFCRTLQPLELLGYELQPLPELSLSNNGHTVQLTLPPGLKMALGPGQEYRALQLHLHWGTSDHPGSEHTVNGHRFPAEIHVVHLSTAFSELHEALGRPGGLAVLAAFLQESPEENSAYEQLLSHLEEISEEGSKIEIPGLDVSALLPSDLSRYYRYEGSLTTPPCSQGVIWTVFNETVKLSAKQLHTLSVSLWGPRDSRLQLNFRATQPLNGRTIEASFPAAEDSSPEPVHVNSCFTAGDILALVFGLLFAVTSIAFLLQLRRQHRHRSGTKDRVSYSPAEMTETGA
From the text: To assess cross-reactivity of CA9 1 to mouse CA9 and further confirm the binding kinetics to human CA9, HEK293T-mCA9 cells were stained with increasing concentrations of CA9 1-mIgG2a then analyzed by flow cytometry. Recombinant CA9 1-mIgG2a protein was titrated against parental and engineered HEK293T cell lines expressing mouse CA9. Target cells were also stained with positive control antibodies to confirm expression of mouse CA9 on the engineered HEK293T cells. Following primary staining, the cells were washed, stained with secondary antibody, and subsequently analyzed by flow cytometry. Data were analyzed using FlowJo. Target cells were also stained using an anti-mouse CA9 positive control antibody to confirm expression of mouse CA9 on the HEK293T-mCA9 cells.

[3] = biological target: T4, human CA9 isoform with Q326R SNP, expressed on HEK293T cells (human, UniProt Q16790 38-459); test: flow cytometry histograms on the snpQ326R CA9 HEK293T line, secondary mouse anti human IgG2 stain
T4 construct: also called CA9-Q326R; Q326R CA9

[4] = biological target: T5, human CA9 isoform with 91-96 deletion, expressed on HEK293T cells (human, UniProt Q16790 38-459); test: flow cytometry histograms on the 91-96del CA9 HEK293T line, secondary mouse anti human IgG2 stain
T5 construct: also called CA9-91-96del; 91-96del CA9

[5] = biological target: T2, human Carbonic Anhydrase IX (CA9) …; test: flow cytometry histograms on the wt line 293T-LP81-CA9(CL572), secondary mouse anti human IgG2 stain
[6] = biological target: T2, human Carbonic Anhydrase IX (CA9) …; test: flow cytometry on HEK293T-CA9 against parental cells (data not shown)
Protocol: as §2

[7] = biological target: T6, human Prostate-Specific Membrane Antigen (PSMA) expressed on cells (human, UniProt Q04609 1-750); test: flow cytometry dose curves on HEK293T-PSMA against parental cells (data not shown)
T6 construct: also called FOLH1; HEK293T-PSMA
T6 sequence (Q04609 whole entry): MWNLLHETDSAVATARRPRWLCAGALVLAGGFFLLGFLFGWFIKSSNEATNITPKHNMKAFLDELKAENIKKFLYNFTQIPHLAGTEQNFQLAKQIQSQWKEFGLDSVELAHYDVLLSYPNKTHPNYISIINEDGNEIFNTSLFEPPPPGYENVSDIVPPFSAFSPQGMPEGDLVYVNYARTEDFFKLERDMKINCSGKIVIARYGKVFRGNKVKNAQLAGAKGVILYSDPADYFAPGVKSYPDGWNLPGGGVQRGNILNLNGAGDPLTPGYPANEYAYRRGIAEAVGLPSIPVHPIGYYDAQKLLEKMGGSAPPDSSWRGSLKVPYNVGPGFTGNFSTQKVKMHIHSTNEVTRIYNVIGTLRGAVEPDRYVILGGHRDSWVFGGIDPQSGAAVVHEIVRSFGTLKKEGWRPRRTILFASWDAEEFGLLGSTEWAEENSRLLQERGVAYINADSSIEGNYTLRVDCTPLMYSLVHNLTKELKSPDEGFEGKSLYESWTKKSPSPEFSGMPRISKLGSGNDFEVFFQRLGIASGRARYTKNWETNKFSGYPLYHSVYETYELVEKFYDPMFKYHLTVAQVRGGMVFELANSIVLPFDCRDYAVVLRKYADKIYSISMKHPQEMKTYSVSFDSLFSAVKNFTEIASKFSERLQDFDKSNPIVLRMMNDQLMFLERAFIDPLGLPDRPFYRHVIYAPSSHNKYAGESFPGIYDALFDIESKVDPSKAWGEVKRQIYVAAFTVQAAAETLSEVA
Protocol: as §2, with “PSMA expressing HEK293T cell lines were used to assess the binding” for “Binding”, “antibodies” for “CA9 1-mIgG2a and CA9 2-mIgG2a”, “to” for “to CA9 was assessed by”, “surface expressed PSMA.” for “binding dose curves on parental HEK293T cells and HEK293T-CA9 expressing cell lines.”, “HEK293T-PSMA” for “HEK293T-CA9”
Binding of PSMA 1-mIgG2a or PSMA 2-mIgG2a to PSMA was assessed by cell binding dose curves on parental HEK293T cells and HEK293T-PSMA expressing cell lines. […] (data not shown)

[8] = biological target: T6, human Prostate-Specific Membrane …; test: flow cytometry, 8-point serial dilution on HEK293T-PSMA cells, anti-mouse IgG2a-PE secondary, gMFI
Protocol: as §2, with “PSMA expressing HEK293T cell lines were used to assess the binding” for “Binding”, “antibodies” for “CA9 1-mIgG2a and CA9 2-mIgG2a”, “to” for “to CA9 was assessed by”, “surface expressed PSMA.” for “binding dose curves on parental HEK293T cells and HEK293T-CA9 expressing cell lines.”, “HEK293T-PSMA” for “HEK293T-CA9”
as §3

recombinant mouse PSMA = biological target: T7, recombinant mouse PSMA (mouse, UniProt O35409 45-752, limits assumed); test: BLI (Octet R8), antibody on anti-mouse capture biosensors, recombinant antigen as analyte
T7 construct: also called mouse homolog of PSMA
T7 sequence (O35409 45-752 limits assumed): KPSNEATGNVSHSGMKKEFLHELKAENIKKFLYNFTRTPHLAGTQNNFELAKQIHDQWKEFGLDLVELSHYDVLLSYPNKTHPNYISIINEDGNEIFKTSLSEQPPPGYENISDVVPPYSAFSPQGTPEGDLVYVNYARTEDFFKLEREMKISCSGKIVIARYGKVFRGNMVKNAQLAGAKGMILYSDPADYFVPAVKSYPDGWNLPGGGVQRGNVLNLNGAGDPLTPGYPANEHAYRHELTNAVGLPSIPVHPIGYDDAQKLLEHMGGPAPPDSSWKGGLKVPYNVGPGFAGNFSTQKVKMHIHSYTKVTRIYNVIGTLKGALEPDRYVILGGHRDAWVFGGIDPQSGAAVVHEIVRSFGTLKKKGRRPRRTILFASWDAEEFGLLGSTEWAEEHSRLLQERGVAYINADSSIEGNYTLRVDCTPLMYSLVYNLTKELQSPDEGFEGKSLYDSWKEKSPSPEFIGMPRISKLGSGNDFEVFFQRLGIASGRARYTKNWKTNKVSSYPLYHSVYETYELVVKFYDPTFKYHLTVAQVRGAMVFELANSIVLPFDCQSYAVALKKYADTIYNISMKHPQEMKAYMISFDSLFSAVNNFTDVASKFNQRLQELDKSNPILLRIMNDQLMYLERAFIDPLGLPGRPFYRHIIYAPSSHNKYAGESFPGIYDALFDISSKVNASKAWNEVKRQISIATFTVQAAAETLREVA
Protocol: as §1
as §1, with “recombinant” for “recombinant CA9”, “PSMA” for “CA9”, “R8 instrument. […]” for “R8. Briefly, recombinant antibody was loaded onto anti-mouse capture (AMC) Octet biosensors.”, “The KD value and other kinetics parameters were determined by the values of Req for each analyte concentration (Table 1).” left out

recombinant human PSMA = biological target: T8, recombinant human PSMA (human, UniProt Q04609 44-750); test: BLI (Octet R8), antibody on anti-mouse capture biosensors, recombinant human PSMA as analyte
T8 construct: Soluble recombinant antigen used as analyte on the Octet
T8 sequence (Q04609 44-750 limits assumed): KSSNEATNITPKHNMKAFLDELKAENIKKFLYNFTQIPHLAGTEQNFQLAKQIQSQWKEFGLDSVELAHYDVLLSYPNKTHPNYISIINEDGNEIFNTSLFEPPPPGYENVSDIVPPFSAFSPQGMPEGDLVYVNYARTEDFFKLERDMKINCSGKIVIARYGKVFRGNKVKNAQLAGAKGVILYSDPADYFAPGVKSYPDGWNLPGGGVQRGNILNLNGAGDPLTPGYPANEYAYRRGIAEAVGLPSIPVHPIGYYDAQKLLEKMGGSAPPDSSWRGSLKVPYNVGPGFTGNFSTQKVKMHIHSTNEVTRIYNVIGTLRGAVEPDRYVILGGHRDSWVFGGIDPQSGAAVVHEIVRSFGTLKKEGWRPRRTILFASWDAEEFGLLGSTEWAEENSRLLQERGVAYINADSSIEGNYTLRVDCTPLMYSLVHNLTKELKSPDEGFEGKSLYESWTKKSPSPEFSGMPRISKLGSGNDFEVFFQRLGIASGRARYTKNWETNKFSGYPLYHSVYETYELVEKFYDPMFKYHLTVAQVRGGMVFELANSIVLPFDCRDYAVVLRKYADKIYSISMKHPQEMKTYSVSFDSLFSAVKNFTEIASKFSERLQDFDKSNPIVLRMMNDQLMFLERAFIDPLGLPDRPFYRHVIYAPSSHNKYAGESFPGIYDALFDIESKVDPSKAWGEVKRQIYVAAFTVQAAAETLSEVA
Protocol: as §1, with “recombinant” for “recombinant CA9”, “PSMA” for “CA9”, “R8 instrument.” for “R8.”, “2).” for “1).”

[9] = biological target: T9, mouse PSMA expressed on HEK293T cells (mouse, UniProt O35409 1-752); test: flow cytometry histograms on HEK293T-mPSMA cells (panel B, left), axis PSMA 1 ab MFI
T9 construct: whole, on cells; also called HEK293T-mPSMA; mPSMA
T9 sequence (O35409 whole entry): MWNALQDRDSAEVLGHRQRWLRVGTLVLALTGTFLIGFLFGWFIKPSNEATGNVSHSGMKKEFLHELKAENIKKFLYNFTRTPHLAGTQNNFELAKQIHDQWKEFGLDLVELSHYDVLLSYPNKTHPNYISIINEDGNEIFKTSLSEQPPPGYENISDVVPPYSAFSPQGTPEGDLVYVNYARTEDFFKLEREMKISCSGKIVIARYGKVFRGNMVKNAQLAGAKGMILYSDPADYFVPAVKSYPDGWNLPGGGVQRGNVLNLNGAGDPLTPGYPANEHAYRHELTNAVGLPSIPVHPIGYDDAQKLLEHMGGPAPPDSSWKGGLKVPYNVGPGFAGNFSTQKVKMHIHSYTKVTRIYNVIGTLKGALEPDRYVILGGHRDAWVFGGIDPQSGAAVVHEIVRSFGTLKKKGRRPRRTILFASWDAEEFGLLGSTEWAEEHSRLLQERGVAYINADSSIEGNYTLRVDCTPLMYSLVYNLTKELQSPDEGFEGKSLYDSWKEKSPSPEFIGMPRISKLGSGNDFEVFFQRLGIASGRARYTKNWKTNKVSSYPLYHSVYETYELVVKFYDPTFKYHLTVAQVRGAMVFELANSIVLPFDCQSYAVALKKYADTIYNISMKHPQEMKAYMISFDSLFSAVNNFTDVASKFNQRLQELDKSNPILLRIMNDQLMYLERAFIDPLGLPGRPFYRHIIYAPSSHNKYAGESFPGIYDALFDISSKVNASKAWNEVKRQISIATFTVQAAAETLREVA
Protocol: Cross-reactivity of PSMA 1 to mouse PSMA was evaluated using flow cytometry. In brief, HEK293T cells expressing mouse PSMA (HEK293T-mPSMA) were stained for 30 min on ice with increasing concentrations of PSMA 1-mIgG2a. Target cells were also stained with positive control antibodies to confirm expression of mouse PSMA on the engineered HEK293T cells. Following primary staining, the cells were washed, stained with secondary antibody, and subsequently analyzed by flow cytometry. Data were analyzed using FlowJo.

T1 sequence (Q8VHB5 32-390 limits assumed): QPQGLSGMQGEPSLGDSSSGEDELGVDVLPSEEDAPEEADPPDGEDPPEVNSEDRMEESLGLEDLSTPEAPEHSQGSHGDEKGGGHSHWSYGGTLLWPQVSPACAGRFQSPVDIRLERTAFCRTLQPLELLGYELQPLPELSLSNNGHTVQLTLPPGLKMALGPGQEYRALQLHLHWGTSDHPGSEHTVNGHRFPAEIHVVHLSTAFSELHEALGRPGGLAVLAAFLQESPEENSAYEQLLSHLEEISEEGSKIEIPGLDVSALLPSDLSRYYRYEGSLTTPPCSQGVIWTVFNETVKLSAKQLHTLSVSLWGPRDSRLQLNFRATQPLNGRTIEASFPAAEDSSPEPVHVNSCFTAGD

B1: CA9 1-mIgG2a (antibody, V domains shown)
VH: QVQLVQSGAEVKKPGASVKVSCKASGYTFTSYYMHWVRQAPGQGLEWMGIINPSRGSASYAQKFQGRVTMARDTSTSTVYMELSSLRSEDTAVYYCARDRNYYYYMDVWGKGTTVTVSS
VL: EIVMTQSPATLSVSPGERATLSCRASQNISSNLAWYQQKPGQAPRLLIYGASTRATDIPARFSGSGSGTEFTLTISSLQSEDFAVYYCQQYITWYTFGQGTKLEIK
notes: Fully human VH and VL cloned into mammalian expression vectors with mouse IgG2a constant domains (chimeric antibody, expressed in CHO); also called CA9 1 antigen biding fragment
B1 was tested, and the binding result (recombinant mouse CA9) was “no binding”, the EC50 [1] was 0.92 nM and the Kd (recombinant human CA9) was 0.15 nM. The koff (recombinant human CA9) was 4.9e-05 s⁻¹, the kon (recombinant human CA9) was 325000 M⁻¹ s⁻¹ and the binding result [2] was “no binding (tested: 30 µg/mL)”.

B2: CA9 2 scFv (as printed; CA9 2 is a VH-only single domain) (VHH)
VHH: EVQLVESGGGLVQPGGSLRLSCAASGFSFSDYSGMSWVRQAPGKGEELVSAISPGGGDTYYADSVKGRFTISRDNSKNTLYLQMNSLRAEDTAVYYCARRWWYYSNHSGDYDYFDYRGQGTLVTVSS
notes: It was detected with a secondary 'mouse anti human IgG2' stain
B2: binds [3]; binds [4]; binds [5].

B3: CA9 2-mIgG2a (antibody, V domains shown)
VH: EVQLVESGGGLVQPGGSLRLSCAASGFSFSDYSGMSWVRQAPGKGEELVSAISPGGGDTYYADSVKGRFTISRDNSKNTLYLQMNSLRAEDTAVYYCARRWWYYSNHSGDYDYFDYRGQGTLVTVSS
B3: binds [6].

B4: PSMA 2-mIgG2a (antibody, V domains shown)
VH: QVQLVQSGAEVKKPGASVKVSCKASGYTFSSYGVSWVRQAPGQGLEWMGWISKYNGNTNYAQKFQGRVTMTTDTSTSTAYMELRSLRSDDTAVYFCARGGIHGDSYYFYYLDVWGKGTTVTVSS
VL: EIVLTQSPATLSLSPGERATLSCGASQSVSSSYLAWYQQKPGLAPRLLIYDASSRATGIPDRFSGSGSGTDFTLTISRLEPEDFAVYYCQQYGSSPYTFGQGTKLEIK
notes: Fully human VH and VL cloned into vectors with mouse IgG2a constant domains (chimeric, expressed in CHO)
B4: binds [7].

B5: PSMA 1-mIgG2a (antibody, V domains shown)
VH: QVQLVQSGPEVKKPGASVKVSCKASGYTFTSYGITWVRQAPGQGLEWMGWISEYNGNTNYAQKFQGRVTMTIDTSTTTAYMELRSLRSDDTAVYFCARGGILPYYFFYYMDVWGKGTTVTVSS
VL: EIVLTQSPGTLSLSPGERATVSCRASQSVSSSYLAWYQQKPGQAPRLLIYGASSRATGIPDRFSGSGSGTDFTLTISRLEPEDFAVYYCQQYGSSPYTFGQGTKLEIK
notes: Fully human VH and VL cloned into vectors with mouse IgG2a constant domains (chimeric, expressed in CHO); also called PSMA 1 antigen biding fragment
With B5 the EC50 [8] was 1.86 nM, the binding result (recombinant mouse PSMA) was “no binding” and the Kd (recombinant human PSMA) was 0.3 nM. For the same binder, the koff (recombinant human PSMA) was 1.89e-05 s⁻¹, the kon (recombinant human PSMA) was 63300 M⁻¹ s⁻¹ and the binding result [9] was “no binding (tested: 30 µg/mL)”.

B6: CA9 1 scFv (scFv)
scFv: QVQLVQSGAEVKKPGASVKVSCKASGYTFTSYYMHWVRQAPGQGLEWMGIINPSRGSASYAQKFQGRVTMARDTSTSTVYMELSSLRSEDTAVYYCARDRNYYYYMDVWGKGTTVTVSSGGGGSGGGGSGGGGSEIVMTQSPATLSVSPGERATLSCRASQNISSNLAWYQQKPGQAPRLLIYGASTRATDIPARFSGSGSGTEFTLTISSLQSEDFAVYYCQQYITWYTFGQGTKLEIK
notes: Used to stain the CA9 isoform cell lines; It was detected with a secondary 'mouse anti human IgG2' stain
B6: binds [3]; binds [4]; binds [5].
